Measured values from US20090324602A1 (Biogen, published 2009).
Where “and” joins values, the source holds several entries; their conditions need not be identical. Equal values may be shown once. Read-outs that look alike come from different tables or passages of the source. Values belong to the binder of their own block, whether it stands above or below them.

Legend:
[1] = target: T1, soluble monomeric human Fn14 protein (ectodomain with myc and His tags) (human); assay: SPR (Biacore), antibody amine-coupled on CM5, soluble monomeric human Fn14 0.3-30 nM as analyte, 1:1 fit
T1 construct: also called soluble Fn14 protein; soluble human Fn14
Procedure: (§1) Briefly, proteins were diluted to 30 μg/ml in 10 mM acetate, pH 5.0 and 10 μl was injected over chip surfaces that had been activated with a 10 μl injection of 1:1 N-hydroxsuccinimide (NHS): 1-Ethyl-3(3-dimethylaminopropyl)-carbodiimide hydrochloride (EDC). In addition one flow cell in each experiment was left underivitized as a background control. Excess free amine groups were then capped with a 50 μl injection of 1 M Ethanolamine. Typical immobilization levels were ˜1200 RU.
(§2) Concentration series ranging from 0.3 to 30 nM, of human Fn14 were prepared in Biacore buffer #1 (10 mM HEPES pH 7.0+150 mM NaCl+3.4 mM EDTA+0.005% P-20 detergent+0.05% BSA). The amino acid sequence of the soluble Fn14 protein used in these experiments was [sequence] [sequence]. Samples were run over antibody and control surfaces in non-sequential order at a flow rate of 50 μl/min for 5 minutes followed by 15 minutes dissociation in Biacore buffer #1. After each cycle the chip was regenerated with 15 mM NaOH.
(§3) Raw data were normalized by setting the preinjection response to zero on the Y-axis and the injection start to zero on the X-axis for each concentration series. Data were further normalized by subtracting the response on the underivitized surface from the response on the active surfaces and then subtracting the buffer only response on the active surface from the binding data on the same surface (so-called ‘double referencing’ of the data). The global association and dissociation rate constants were then determined for each concentration series by fitting the data using a Marquardt-Levenberg algorithm for 1:1 binding within the Biaevaluation software. The affinity constant was calculated from the ratio of the rate constants (KD=kd/kₐ).

[2] = target: T1, soluble monomeric human Fn14 protein …; assay: SPR (Biacore), antibody amine-coupled on CM5, soluble monomeric human Fn14 0.3-30 nM as analyte, KD = kd/ka
Procedure: as §1, §2, §3

[3] = target: T2, rat Fn14, full-length, expressed on the cell surface (rat, UniProt Q9CR75 28-129 (mouse entry)); assay: FACS direct binding titration on surface rat Fn14; value is C (midpoint) of the printed 4-P fit y=(A-D)/(1+(x/C)^B)+D, x in ng/ml
T2 construct: also called pEAG2275
Source text: (§4) Cells were used in FACS at 2 days post-transfection, staining with monoclonal antibodies of interest (with dilution titration) and gating on green EGFP-positive living cells.

[4] = target: T3, human Fn14, full-length, expressed on the cell surface (human, UniProt Q9NP84 28-129); assay: FACS direct binding titration on surface human Fn14; value is C (midpoint) of the printed 4-P fit y=(A-D)/(1+(x/C)^B)+D, x in ng/ml
T3 construct: Also used for Fn14 on tumour cell lines (WiDr, A375) and in tissue sections; also called huFn14; hu Fn14
Source text: as §4

[5] = target: T3, human Fn14, full-length, expressed on …; assay: FACS dilution titration on 293E cells transiently overexpressing human Fn14; value is C (midpoint) of the printed 4-P fit y=(A-D)/(1+(x/C)^B)+D, x in ug/ml
[6] = target: T4, huFn14-huFc fusion protein (human, UniProt Q9NP84 28-80); assay: competition ELISA on coated huFn14-huFc against a constant amount of biotinylated murine P4A8, OD450; value is C (midpoint) of the printed 4-P fit, x in ng/ml
T4 construct: also called hFn14-hFc; bivalent Fn14-Fc; not shown: human Fc

[7] = target: T3, human Fn14, full-length, expressed on …; assay: FACS on WiDr cells
[8] = target: T5, mouse Fn14-mouse Fc (mouse, UniProt Q9CR75 28-80); assay: direct binding ELISA, mouse Fn14-mouse Fc coated at 2 µg/ml, HRP-goat anti-human IgG
T5 construct: not shown: mouse Fc

[9] = target: T6, human Fn14 M50A, expressed on the cell surface (human, UniProt Q9NP84 28-129); assay: FACS direct binding, cells expressing the huFn14 construct, MFI
T6 construct: also called pYL396
Source text: (§5) A panel of huFn14 point mutants was made by substituting Xenopus residues into the human sequence at a number positions by site-directed mutagenesis on the pEAG2121 template (EBV expression vector for huFn14): pYL391 T33Q, pYL392 S40R, pYL393 L65Q, pYL396 M50A, pYL397 R56K, pYL398 R56P (a more drastic substitution than the Xenopus change) and pYL399 H60K.

[10] = target: T7, human Fn14 R56K, expressed on the cell surface (human, UniProt Q9NP84 28-129); assay: as above
T7 construct: also called pYL397
Source text: as §5

[11] = target: T2, rat Fn14, full-length, expressed on the …; assay: direct binding FACS
Source text: as §4, §5

[12] = target: T8, mouse Fn14, full-length, expressed on the cell surface (mouse, UniProt Q9CR75 28-129); assay: FACS titration on cells expressing surface Fn14, MFI against ng/ml anti-Fn14 mab
T8 construct: also called murine Fn14; mu Fn14
Source text: as §4

[13] = target: T8, mouse Fn14, full-length, expressed on …; assay: FACS direct binding titration on murine surface Fn14 (target per legend paragraph 91), MFI
Source text: as §4

[14] = target: T9, cynomolgus monkey Fn14, full-length, expressed on the cell surface (cynomolgus monkey, UniProt Q9NP84 28-129 (human entry)); assay: FACS direct binding titration on surface Fn14, MFI
T9 construct: also called cyno Fn14; pEAG2120
Source text: as §4

[15] = target: T10, human Fn14 W42A, expressed on the cell surface (human, UniProt Q9NP84 28-129); assay: FACS direct binding, cells expressing the huFn14 construct, MFI
T10 construct: also called huFn14 W42A; pEAG2251
Source text: as §5

[16] = target: T11, human Fn14 T33Q, expressed on the cell surface (human, UniProt Q9NP84 28-129); assay: as above
T11 construct: also called pYL391
Source text: as §5

[17] = target: T12, human Fn14 S40R, expressed on the cell surface (human, UniProt Q9NP84 28-129); assay: as above
T12 construct: also called pYL392
Source text: as §5

[18] = target: T13, human Fn14 L65Q, expressed on the cell surface (human, UniProt Q9NP84 28-129); assay: as above
T13 construct: also called pYL393
Source text: as §5

[19] = target: T6, human Fn14 M50A, expressed on the cell …; assay: as above; remark: listed apart in the source
Source text: as §5

[20] = target: T14, human Fn14 R56P, expressed on the cell surface (human, UniProt Q9NP84 28-129); assay: as above
T14 construct: also called pYL398
Source text: as §5

[21] = target: T15, human Fn14 H60K, expressed on the cell surface (human, UniProt Q9NP84 28-129); assay: as above
T15 construct: also called pYL399
Source text: as §5

koff [1]: 0.0029 s⁻¹ and 0.0047 s⁻¹
kon [1]: 2e+06 M⁻¹ s⁻¹ and 2.9e+06 M⁻¹ s⁻¹
Kd [2]: 3.4 nM and 2.2 nM
EC50 [3]: 0.0721 µg/mL
EC50 [4]: 0.0916 µg/mL
B1: humanized P4A8 (H1/L1) aglycosylated S228P/T299A huIgG4, kappa (antibody)
heavy: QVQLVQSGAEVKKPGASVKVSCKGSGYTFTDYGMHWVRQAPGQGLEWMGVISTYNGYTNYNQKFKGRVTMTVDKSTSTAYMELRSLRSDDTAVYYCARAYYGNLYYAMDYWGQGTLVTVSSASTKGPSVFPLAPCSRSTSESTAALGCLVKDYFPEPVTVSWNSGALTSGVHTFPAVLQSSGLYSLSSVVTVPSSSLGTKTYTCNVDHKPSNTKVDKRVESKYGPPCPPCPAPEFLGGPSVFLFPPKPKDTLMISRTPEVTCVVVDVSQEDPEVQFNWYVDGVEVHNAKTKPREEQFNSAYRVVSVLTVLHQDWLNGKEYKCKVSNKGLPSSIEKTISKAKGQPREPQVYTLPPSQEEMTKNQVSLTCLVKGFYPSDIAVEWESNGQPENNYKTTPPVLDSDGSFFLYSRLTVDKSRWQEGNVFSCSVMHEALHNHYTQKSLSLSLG
light: DIVLTQSPASLAVSLGQRATISCRASKSVSTSSYSYMHWYQQKPGQPPKLLIKYASNLESGVPARFSGSGSGTDFSLNIHPMEEDDTAMYFCQHSRELPFTFGGGTKLEIKRTVAAPSVFIFPPSDEQLKSGTASVVCLLNNFYPREAKVQWKVDNALQSGNSQESVTEQDSKDSTYSLSSTLTLSKADYEKHKVYACEVTHQGLSSPVTKSFNRGEC
notes: also called huP4A8-aglyG4P; hP4A8.IgG4Pagly

EC50 [5]: 0.178 µg/mL
IC50 [6]: 0.0408 µg/mL
B2: humanized P4A8 (H1/L2) huIgG1, kappa (antibody, V domains shown)
VH: QVQLVQSGAEVKKPGASVKVSCKGSGYTFTDYGMHWVRQAPGQGLEWMGVISTYNGYTNYNQKFKGRVTMTVDKSTSTAYMELRSLRSDDTAVYYCARAYYGNLYYAMDYWGQGTLVTVSS
VL: DIVLTQSPASLAVSLGQRATISCRASKSVSTSSYSYMHWYQQKPGQPPKLLIKYASNLESGVPARFSGSGSGTDFILNIHPMEEDDTAMYFCQHSRELPFTFGGGTKLEIKR
notes: One of the 'six versions of huP4A8' (two heavy chains by three light chains) expressed transiently in 293E cells; also called version of huP4A8 H1/L2

EC50 [5]: 0.175 µg/mL
IC50 [6]: 0.0275 µg/mL
B3: humanized P4A8 (H2/L1) huIgG1, kappa (antibody, V domains shown)
VH: QVQLVQSGAEVKKPGASVKVSCKGSGYTFTDYGMHWVRQAPGQGLEWIGVISTYNGYTNYNQKFKGRATMTVDKSTSTAYMELRSLRSDDTAVYYCARAYYGNLYYAMDYWGQGTLVTVSS
VL: DIVLTQSPASLAVSLGQRATISCRASKSVSTSSYSYMHWYQQKPGQPPKLLIKYASNLESGVPARFSGSGSGTDFSLNIHPMEEDDTAMYFCQHSRELPFTFGGGTKLEIKR
notes: One of the 'six versions of huP4A8'; also called version of huP4A8 H2/L1

EC50 [5]: 0.172 µg/mL
IC50 [6]: 0.0316 µg/mL
B4: humanized P4A8 (H1/L3) huIgG1, kappa (antibody, V domains shown)
VH: QVQLVQSGAEVKKPGASVKVSCKGSGYTFTDYGMHWVRQAPGQGLEWMGVISTYNGYTNYNQKFKGRVTMTVDKSTSTAYMELRSLRSDDTAVYYCARAYYGNLYYAMDYWGQGTLVTVSS
VL: DIVLTQSPASLAVSLGQRATISCRASKSVSTSSYSYMHWYQQKPGQPPKLLIKYASNLESGVPARFSGSGSGTDFILNIHPMEEDDTATYYCQHSRELPFTFGGGTKLEIKR
notes: One of the 'six versions of huP4A8'; also called version of huP4A8 H1/L3

EC50 [5]: 0.175 µg/mL
IC50 [6]: 0.0357 µg/mL
B5: humanized P4A8 (H2/L3) huIgG1, kappa (antibody, V domains shown)
VH: QVQLVQSGAEVKKPGASVKVSCKGSGYTFTDYGMHWVRQAPGQGLEWIGVISTYNGYTNYNQKFKGRATMTVDKSTSTAYMELRSLRSDDTAVYYCARAYYGNLYYAMDYWGQGTLVTVSS
VL: DIVLTQSPASLAVSLGQRATISCRASKSVSTSSYSYMHWYQQKPGQPPKLLIKYASNLESGVPARFSGSGSGTDFILNIHPMEEDDTATYYCQHSRELPFTFGGGTKLEIKR
notes: One of the 'six versions of huP4A8'; also called version of huP4A8 H2/L3

EC50 [7]: 0.12 nM
EC50 [8]: ~0.00679 µg/mL
koff [1]: 0.0029 s⁻¹ and 0.003 s⁻¹
kon [1]: 1.7e+06 M⁻¹ s⁻¹ and 1.8e+06 M⁻¹ s⁻¹
Kd [2]: 2.6 nM and 1.7 nM
EC50 [3]: 0.0586 µg/mL
EC50 [4]: 0.0766 µg/mL
EC50 [5]: 0.25 µg/mL
IC50 [6]: 0.0352 µg/mL
B6: humanized P4A8 (H1/L1) huIgG1, kappa (antibody)
heavy: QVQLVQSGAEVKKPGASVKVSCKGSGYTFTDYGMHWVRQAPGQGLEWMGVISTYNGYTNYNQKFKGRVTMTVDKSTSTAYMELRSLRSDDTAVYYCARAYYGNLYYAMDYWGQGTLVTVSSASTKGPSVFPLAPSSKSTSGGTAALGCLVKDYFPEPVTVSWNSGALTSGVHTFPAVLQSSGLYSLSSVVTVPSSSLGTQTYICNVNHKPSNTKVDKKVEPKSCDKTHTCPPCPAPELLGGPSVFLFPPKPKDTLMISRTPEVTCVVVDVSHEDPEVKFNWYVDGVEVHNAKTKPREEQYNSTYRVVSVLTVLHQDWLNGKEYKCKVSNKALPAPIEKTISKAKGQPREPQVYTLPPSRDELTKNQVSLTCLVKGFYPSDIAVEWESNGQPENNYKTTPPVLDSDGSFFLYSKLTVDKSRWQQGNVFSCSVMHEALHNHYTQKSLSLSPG
light: DIVLTQSPASLAVSLGQRATISCRASKSVSTSSYSYMHWYQQKPGQPPKLLIKYASNLESGVPARFSGSGSGTDFSLNIHPMEEDDTAMYFCQHSRELPFTFGGGTKLEIKRTVAAPSVFIFPPSDEQLKSGTASVVCLLNNFYPREAKVQWKVDNALQSGNSQESVTEQDSKDSTYSLSSTLTLSKADYEKHKVYACEVTHQGLSSPVTKSFNRGEC
notes: H1 heavy chain (pYL310) with L1 kappa light chain (pYL321); also called huP4A8; hP4A8.IgG1

EC50 [5]: 0.179 µg/mL
IC50 [6]: 0.0326 µg/mL
B7: humanized P4A8 (H2/L2) huIgG1, kappa (antibody, V domains shown)
VH: QVQLVQSGAEVKKPGASVKVSCKGSGYTFTDYGMHWVRQAPGQGLEWIGVISTYNGYTNYNQKFKGRATMTVDKSTSTAYMELRSLRSDDTAVYYCARAYYGNLYYAMDYWGQGTLVTVSS
VL: DIVLTQSPASLAVSLGQRATISCRASKSVSTSSYSYMHWYQQKPGQPPKLLIKYASNLESGVPARFSGSGSGTDFILNIHPMEEDDTAMYFCQHSRELPFTFGGGTKLEIKR
notes: One of the 'six versions of huP4A8'; also called version of huP4A8 H2/L2

binding result [9]: binds
binding result [10]: binds
B8: monoclonal antibody 1.P4A8.3C7 (P4A8), murine (antibody, V domains shown)
VH: QVQLQQSGPEVVRPGVSVKISCKGSGYTFTDYGMHWVKQSHAKSLEWIGVISTYNGYTNYNQKFKGKATMTVDKSSSTAYMELARLTSEDSAIYYCARAYYGNLYYAMDYWGQGTSVTVSS
VL: DIVLTQSPASLAVSLGQRATISCRASKSVSTSSYSYMHWYQQKPGQPPKLLIKYASNLESGVPARFSGSGSGTDFILNIHPVEEEDAATYYCQHSRELPFTFGSGTKLEIK
notes: Mouse hybridoma mAb (ATCC PTA-9947); also called muP4A8; murine P4A8 mAb

binding result [11]: binds
EC50 [12]: 0.00478 µg/mL
EC50 [13]: 0.00226 µg/mL
B9: monoclonal antibody 1.P2D3.3D5 (P2D3), murine (antibody, V domains shown)
VH: not shown
VL: DIVLTQSPASLAVSLGQRATISCRASKSVSTSSYSYMHWYQQKPGQPPKLLIKYTSNLESGVPARFSGSGSGTDFILNIHPVEEEDAATYYCQHSRELPWTFGGGTKLEIK
notes: Mouse hybridoma mAb (ATCC PTA-9948)

binding result [11]: binds
EC50 [13]: 0.00238 µg/mL
B10: monoclonal antibody P3D8, murine (antibody, V domains shown)
VH: not shown
VL: DIVLTQSPASLAVSLGQRATISCRASKSVSTSSYSYMHWYQQKPGQPPKLLIKYTSNLESGVPARFSGSGSGTDFILNIHPVEEEDAATYYCQHSRELPWTFGGGTKLEIK

binding result [11]: binds
EC50 [14]: 0.00119 µg/mL
binding result [15]: binds
binding result [16]: binds
binding result [17]: binds
binding result [18]: binds
binding result [19]: binds
binding result [20]: binds
binding result [21]: binds
EC50 [13]: 0.00201 µg/mL
B11: monoclonal antibody 1.P3G5.1E4 (P3G5), murine (antibody, V domains shown)
VH: QVQLQQSGPEVVRPGVSVKISCKGSGYTFTDYGIHWVKQSHAKSLEWIGVISTYNGYTNYNQKFKGKATMTVDKSSSTAYMELARLTSEDSAIYYCARAYYGNLYYAMDYWGQGTSVTVSS
VL: DIVLTQSPASLAVSLGQRATISCRANKSVSTSSYSYMHWYQQKPGQPPKLLIKYASNLESGVPARFSGSGSGTDFILNIHPVEEEDAATYYCQHSRELPFTFGSGTKLEIK
notes: Mouse hybridoma mAb (ATCC PTA-9949)
